Laboratory results: patent US20220112288A1 (published 2022)
Residue numbers refer to the chain shown, from its start.

B1: 75110_06D16A (antibody, V domains shown)
VH: QVQLQQWGAGLLKPSETLSLTCAVYGGSFSGYYWSWIRQPPGKGLEWIGEINHSGSTNYNPSLKSRVTISVVTSKNQFSLKLSSVTAADTAVYYCARVLNWFDPWGQGTLVTVSS
VL: DIQMTQSPSSVSASVGDRVTITCRASQDIADWLAWYQQKPGKAPKLLIYAASSFQSGVPSRFSGSGSGTDFTLTISSLQPEDFATYFCQQANSFPYTFGQGTKLEIK
notes: Tested as non-clonal AlivaMab Mouse Kappa hybridoma supernatant: human variable domains and human kappa, mouse Fc (detected with anti-mouse Fc)
B2: 75110_13P21A (antibody, IgG1, V domains shown)
VH: B1 VH with Y25S, Y59C, V72D, K75N, W101Y, P104Y
VL: B1 VL with Q27P, D31N, K45E, F54L, Y96L, Q100G, L104V, I106S
notes: Tested as non-clonal AlivaMab Mouse Kappa hybridoma supernatant: human variable domains and human kappa, mouse Fc
B3: 75110_07B16A (antibody, IgG1, V domains shown)
VH: B1 VH with P40S, H53Q, V72D, N76D, L99I, P104S, T109S
VL: B1 VL with D28G, A30S, D31S, A50D, P80T, E81D, F87Y
notes: as for B2
B4: 75110_12K21A (antibody, V domains shown)
VH: B1 VH with Y25S, Y59C, V72D, K75N, W101Y, P104Y
VL: B1 VL with Q27P, D31N, K45E, F54L, Y96L, Q100G, L104V, I106S
notes: as for B2
B5: 75110_12C19A (antibody, IgG1, V domains shown)
VH: EVQLVESGGGLVQPGGSLRLSCAASGFTFSSYWMSWVRQAPGKGLEWVANIKEDGSDKYYVDSVKGRFTISRDNAKNSLYLQMNSLRAEDTAVHYCVREGGQWLALDYWGQGTLVTVSS
VL: B1 VL with A13G, D28G, A30S, D31S, A50G, F54L, A84V, F87Y, Y96W, L104V
notes: as for B2
B6: 75110_13C13A (antibody, IgG1, V domains shown)
VH: B1 VH with Y25S, Y59C, V72D, V92M, W101F, P104Y
VL: DIQMTQTPSSVSASVGDRVTITCRASPGISNWLAWYQQKPGKAPELLIYAASSLQSGVPSRFSGSGSGTDFTLTISSLQPEDFATYFCQQANSFPLTFGGGTKVESK
notes: as for B2
B7: 75110_06E14A (antibody, V domains shown)
VH: QVQLQESGPGLVKPSETLSLTCTVSGGSISNYFWSWIRQPAGKGLEWIGRIYSSGNTNYNPSLKSRVTMSVDTSKNQFSLKLSSVTAADTAVYYCARDREDYYYYGMDVWGQGTTVTVSS
VL: DIQMTQSPSSLSASVGDRVTITCQASQDISNYLNWYQQKPGKAPKLLIYGASILETGVPSRFTGSGSGTDFTFTISSLQPEDIATYYCQQYDSLPITFGQGTRLEIK
notes: Tested as non-clonal AlivaMab Mouse Kappa hybridoma supernatant (detected with anti-mouse Fc gamma and anti-human kappa)
B8: 75110_14I16A (antibody, V domains shown)
VH: B7 VH with G26N, N31S, F33Y, P40S, S53T, N56S, S70L
VL: DIQMTQSPSSLSASVGDRVTITCQASHDISNYLNWYQQKPGKAPKLLLYYASNLETGVPSRFSGSGSGTDFTFTITSLQPEDIGTYSCQQYDNLPLTFGGGTKVEIK
notes: Tested as non-clonal AlivaMab Mouse Kappa hybridoma supernatant (detected with anti-mouse Fc gamma and anti-human kappa); also called 75110_14116A
B9: 75110_08M20A (antibody, V domains shown)
VH: B7 VH with G8D, N31S, F33Y, S53A, N56S, D101G
VL: B7 VL with N31K, K45N, G50A, I53N, T63S, T85A
notes: as for B7
B10: CD8B269 (antibody, human IgG1, kappa, V domains shown)
VH: DVQLQESGPGLVKPSQSLSLTCSVTGYSITSGYYWNWIRQFPGNKLEWMGYISYDGSNNYNPSLKNRISITRDTSKNQFFLKLNSVTTEDTATYYCVRNHGDAMDHWGQGTTLTVSS
VL: DIVMTQSQKFMSTSVGDRVRVTCKASQNVGTDVAWYQQKPGQSPKALIYSASYRYSGVPDRFTGSGSGTDFTLTISDVQSEDLAEYFCQQYKSYPLTFGAGTKLELKR
notes: Full-length human IgG1, kappa; V regions recovered from mouse hybridoma
B11: CD8B319 (antibody, human IgG1, kappa, V domains shown)
VH: QVQLKESGPELKKPGETVKISCKASGYSFTAYYMHWVKQSPEKSLEWIGEINPSAGGTTYNQKFKAKATLTVDKSSSTAFIQLKSLTSEDSAVYYCARWTNPFDYWGQGTTLTVSS
VL: DIVMTQSQKFMSTTVGDRVSITCKASQNVGTAVAWYQQKPGQSPKLLIYSASYRYTGVPDRFTGSGSGTHFTLTISNIQSEDLADYFCQQYNNYLTFGSGTKLEIKR
notes: as for B10
B12: CD8B310 (antibody, human IgG1, kappa, V domains shown)
VH: QVQLKESGPGLVAPSQSLSITCTVSGFSLTNYAVHWVRQSPGKGLEWLGVIWTDGSTDYNAGFISRLSISKDNSKSQVFFKMNSLQADDTAIYYCARNNGYFPAFFAYWGQGTTVTVSS
VL: DVLMTQTPLSLPVSLGDQASISCRSSQTIVHSNGNTYLEWYLQKPGQSPKLLMYKVSNRFSGVPDRFGGSGSGTDFTLKISRVEAEDLGVYYCFQGSHAPFTFGSGTKLEIKR
notes: as for B10

Columns and labels:
[1] = target: T1, human CD4 on cells (SKW3 cells; human PBMCs) (human, UniProt P01730 26-458); experiment: FACS primary screen, non-clonal hybridoma supernatant, SKW3 vs SKW3 CD4 knockout cells, anti-human kappa FITC
T1 construct: whole, on cells; SKW3 CD4 knockout cells served as the negative cell line; also called hCD4

[2] = target: T2, huCD4-HIS (human, UniProt P01730 26-390, limits assumed); experiment: ELISA binning, competitor Ibalizumab; 100 ng/mL huCD4-HIS, anti-HIS HRP detection; background 45, max binding 3000000
T2 construct: the ELISA binning is not described in the text of this stretch

[3] = target: T1, human CD4 on cells (SKW3 cells; human …); experiment: FACS confirmation, supernatant on SKW3 WT cells, anti-human kappa FITC; background gMFI 2500
[4] = target: T1, human CD4 on cells (SKW3 cells; human …); experiment: FACS binning on SKW3 cells pre-incubated with supernatant; competitor RPA-T4-PE-Dazzle 594, its signal read; background 783, max binding 15000
[5] = target: T1, human CD4 on cells (SKW3 cells; human …); experiment: FACS confirmation, supernatant on SKW3 WT cells, anti-mouse Fc 647; background gMFI 3300
[6] = target: T1, human CD4 on cells (SKW3 cells; human …); experiment: FACS confirmation, supernatant on human PBMCs, anti-mouse Fc 647, CD4+ gate
[7] = target: T1, human CD4 on cells (SKW3 cells; human …); experiment: FACS binning on SKW3 cells pre-incubated with supernatant; competitor OKT4-A488, its signal read; background 2163, max binding 8200
[8] = target: T1, human CD4 on cells (SKW3 cells; human …); experiment: FACS binning on SKW3 cells pre-incubated with supernatant; competitor OKT4a read with anti-human A647 secondary; background 5000, max binding 35000
[9] = target: T1, human CD4 on cells (SKW3 cells; human …); experiment: FACS confirmation, supernatant on human PBMCs, anti-mouse Fc 647, CD4+ percent of viable cells
[10] = target: T1, human CD4 on cells (SKW3 cells; human …); experiment: FACS primary screen, non-clonal hybridoma supernatant, SKW3 vs SKW3 CD4 knockout cells, anti-mouse Fc A647
[11] = target: T3, human CD4 on cells (SKW3 cells; human PBMCs) (human, UniProt P01730 26-458); experiment: FACS primary screen, hybridoma supernatant, SKW3 vs SKW3 CD4 KO cells;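 also: flow cytometry on mixed SKW3 and dye-labeled SKW3 CD4 knockout cells after 30 min at 4 °C with supernatant, ratio of binding signal on parental versus knockout cells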
T3 construct: whole, on cells; SKW3 CD4 knockout cells served as the negative cell line in the primary screen; also called hCD4; huCD4

[12] = target: T3, human CD4 on cells (SKW3 cells; human …); experiment: FACS confirmation, supernatant on human PBMCs;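 also: flow cytometry with hybridoma supernatants incubated on human PBMCs for 30 min at 4 °C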
[13] = target: T3, human CD4 on cells (SKW3 cells; human …); experiment: FACS confirmation, supernatant on SKW3 cells; background gMFI 2500
[14] = target: T3, human CD4 on cells (SKW3 cells; human …); experiment: FACS confirmation, supernatant on SKW3 cells; background gMFI 3300
[15] = target: T4, human CD8 on human pan T cells (CD4-negative population) (human, UniProt P01732 22-235; P10966 22-210); experiment: flow cytometry, 20 nM antibody on human pan T cells, A647 anti-human IgG Fc; geomean ratio in CD4-negative population
T4 construct: whole, on cells; Endogenous CD8 on primary human pan T cells, read in the CD4-negative gate; also called CD8α/β
T4 sequence (P01732 22-235, chain 1 of 2): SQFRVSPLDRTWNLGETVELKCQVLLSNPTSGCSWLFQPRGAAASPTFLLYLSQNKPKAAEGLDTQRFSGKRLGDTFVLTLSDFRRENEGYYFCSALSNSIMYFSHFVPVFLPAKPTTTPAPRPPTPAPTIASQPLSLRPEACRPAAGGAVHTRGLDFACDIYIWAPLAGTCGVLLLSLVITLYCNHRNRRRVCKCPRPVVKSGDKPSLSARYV
T4 sequence (P10966 22-210, chain 2 of 2): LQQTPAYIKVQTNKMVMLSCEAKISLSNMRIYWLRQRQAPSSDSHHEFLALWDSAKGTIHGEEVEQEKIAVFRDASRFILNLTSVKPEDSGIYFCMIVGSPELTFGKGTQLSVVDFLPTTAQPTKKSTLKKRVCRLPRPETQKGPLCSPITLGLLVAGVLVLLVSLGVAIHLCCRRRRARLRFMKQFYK

Binder	SKW3 WT vs KO anti-hKappa-FITC [1] [fold]	Ibalizumab ELISA binning signal [2]	SKW3 WT anti-hu Kappa FITC, gMFI [3] [gMFI]	SKW3 FACS Binning RPA-T4-PE-Dazzle 594 [4]	SKW3 WT anti-mFc 647, gMFI [5] [gMFI]	PBMCs, anti-mFc 647 CD4+ gate - RL1 Binding [6]	SKW3 FACS Binning OKT4 A488 [7]	SKW3 FACS Binning OKT4a anti-hu A647 Secondary [8]	PBMCs, anti-mFc 647 CD4+ Percent Bound of Viable [9] [%]	SKW3 WT vs KO anti-mFc-647 [10] [fold]	SKW3 WT vs KO ratio, anti-hKappa-FITC [11]	SKW3 WT vs KO ratio, anti-mFc-647 [11]	PBMCs CD4+ gate RL1 binding, anti-mFc 647 [12]	PBMCs CD4+ percent bound of viable [12] [%]	gMFI on SKW3 WT, anti-hu Kappa FITC [13] [gMFI]	gMFI on SKW3 WT, anti-mFc 647 [14] [gMFI]	Cell Binding to Human PanT Signal/Background (of CD4 negative population) [15]
B1	2.5	1.27e+06	8670	21300	41300	216000	9980	5800	29	4	–	–	–	–	–	–	–
B2	2.4	678000	7580	11900	30900	274000	9420	6870	31	5.8	–	–	–	–	–	–	–
B3	3	1.31e+06	7220	20600	30800	274000	9280	5320	29	11.4	–	–	–	–	–	–	–
B4	2.8	1.41e+06	5620	10900	25000	335000	10000	8240	30	6.6	–	–	–	–	–	–	–
B5	2.3	1.51e+06	6850	11900	29300	341000	9580	7140	31	7.2	–	–	–	–	–	–	–
B6	3.1	1.17e+06	7240	20800	23900	99600	9760	5500	6	6.8	–	–	–	–	–	–	–
B7	–	–	–	–	–	–	–	–	–	–	3	9.8	285000	30	8920	33800	–
B8	–	–	–	–	–	–	–	–	–	–	1.4	2.1	196000	23	3550	6820	–
B9	–	–	–	–	–	–	–	–	–	–	2.7	8.8	319000	30	7790	30700	–
B10	–	–	–	–	–	–	–	–	–	–	–	–	–	–	–	–	26
B11	–	–	–	–	–	–	–	–	–	–	–	–	–	–	–	–	16
B12	–	–	–	–	–	–	–	–	–	–	–	–	–	–	–	–	29
